From publication PMC7153000, “Radiosynthesis, Biological Evaluation, and Preclinical Study of a ^68Ga-Labeled Cyclic RGD Peptide as an Early Diagnostic Agent for Overexpressed αvβ3 Integrin Receptors in Non-Small-Cell Lung Cancer” (Contrast Media & Molecular Imaging, 2020)

Columns and labels:
physchem = type: physicochemical; settings: pH 7.4
Description: In a 5 ml Eppendorf tube, 100 μl of the radiolabelled peptide, 0.99 ml of PBS, pH 7.4, and 1 ml n-octanol were mixed. After intense vortexing for 8 min, the two layers were separated by centrifugation. Then, 500 μl aliquots of aqueous and organic layers were transferred to a new tube, radioactivity was measured in a well-type gamma counter (Delshid Gamma counter, Tehran, Iran), and partition coefficient (log P) values were calculated (n = 3).

in vitro = in vitro ADME; settings: human, plasma
Description: The protein binding properties of [^68Ga]Ga-DOTA-E(cRGDfK)2 in blood were investigated by protein precipitation. 1ml of the labeled complex and 3ml of human plasma were mixed and incubated for 1 hour at 37°C. Then, an equal volume of 10% trichloroacetic acid (TCA) was added, and samples were centrifuged at 3,000 rpm for 10 min […]. Precipitate was resuspended in 5% TCA and centrifuged at 3,000 rpm for 10 min. Precipitate and the supernatant fractions were analyzed for radioactivity in a gamma counter. Protein binding of [^68Ga]Ga-DOTA-E(cRGDfK)2 was expressed as the fraction of radioactivity bound to the protein, in percentage of the total radioactivity.

A549 tumor = system: A549 tumor; set-up: species or system BALB/c mice; settings: mouse, in vivo
Description: 100 μg of [^68Ga]Ga-DOTA-E(cRGDfK)2 formulated in 100 μL saline was injected via the tail vein of 3 groups of 3 BALB/c mice. At 30, 60, and 90 min postinjection, mice were euthanized using a lethal dose of ketamine/xylazine, and blood was collected from the heart using a preheparinised syringe. Tumor and normal organs were excised, washed, weighed, and the radioactivity of each organ was determined using a well-type gamma counter. The organ uptake was measured as percent of the injected dose per gram of organ tissue (%ID/g). A blocking experiment was performed in the presence of a 500-fold excess of unlabeled DOTA-E(cRGDfK)2 30 min before [^68Ga]Ga-DOTA-E(cRGDfK)2 injection.
6–8 weeks female BALB/c mice (with body weights of 20–25 g) were purchased from Royan Insitute (Amol, Iran). Animals were housed in wire cages under controlled conditions of temperature at 25°C, relative humidity around 50%, and 12/12 h light/dark cycles with food, and water was given ad libitum. 2 × 10^6 cell suspensions of human lung adenocarcinoma A549 in 100 μl PBS were injected subcutaneously in the right dorsal flank of each mouse. Palpable tumor diameter was measured using digital calipers twice weekly. When tumor size reached a mean tumor volume of 50–100 mm^3, animals received a tail vein injection of 740 kBq of [^68Ga]Ga-DOTA-E(cRGDfK)2 in 100 μl normal saline. […]

integrin αvβ3 = settings: cRGDfK as reference; cited from earlier work
Text: Based on previous studies, multimeric cyclic RGD has higher (20–100 more) αvβ3 binding affinity than its monomeric alternatives. […] Many other works reported higher dissociation constant or lower affinity.

| Molecule | logD (physchem) | In vitro protein binding (in vitro; 1 h) [%] | fraction unbound at 1 h (in vitro; In vitro protein binding) | Clearance (A549 tumor) | Uptake of radioactivity in the kidney and intestine (A549 tumor) | Kd (integrin αvβ3) [µM] |
| --- | --- | --- | --- | --- | --- | --- |
| N=C(N)NCCC[C@@H]1NC(=O)[C@H](CCCCNC(=O)CC[C@H](NC(=O)CN2CCN(CC(=O)O)CCN(CC(=O)O)CCN(CC(=O)O)CC2)C(=O)NCCCC[C@@H]2NC(=O)[C@@H](Cc3ccccc3)NC(=O)[C@H](CC(=O)O)NC(=O)CNC(=O)[C@H](CCCNC(=N)N)NC2=O)NC(=O)[C@@H](Cc2ccccc2)NC(=O)[C@H](CC(=O)O)NC(=O)CNC1=O [[^68Ga]Ga-DOTA-E(cRGDfK)2, metal not drawn] | -3.97 ± 0.13 | 2.88 | > 0.95 | fast and via the renal system | moderate uptake | – |
| cRGDfK | – | – | – | – | – | 1.3 |
